Results published in US20060018896.

Target: purified human C4, P0C0L4
Sequence (P0C0L4 whole entry, looked up): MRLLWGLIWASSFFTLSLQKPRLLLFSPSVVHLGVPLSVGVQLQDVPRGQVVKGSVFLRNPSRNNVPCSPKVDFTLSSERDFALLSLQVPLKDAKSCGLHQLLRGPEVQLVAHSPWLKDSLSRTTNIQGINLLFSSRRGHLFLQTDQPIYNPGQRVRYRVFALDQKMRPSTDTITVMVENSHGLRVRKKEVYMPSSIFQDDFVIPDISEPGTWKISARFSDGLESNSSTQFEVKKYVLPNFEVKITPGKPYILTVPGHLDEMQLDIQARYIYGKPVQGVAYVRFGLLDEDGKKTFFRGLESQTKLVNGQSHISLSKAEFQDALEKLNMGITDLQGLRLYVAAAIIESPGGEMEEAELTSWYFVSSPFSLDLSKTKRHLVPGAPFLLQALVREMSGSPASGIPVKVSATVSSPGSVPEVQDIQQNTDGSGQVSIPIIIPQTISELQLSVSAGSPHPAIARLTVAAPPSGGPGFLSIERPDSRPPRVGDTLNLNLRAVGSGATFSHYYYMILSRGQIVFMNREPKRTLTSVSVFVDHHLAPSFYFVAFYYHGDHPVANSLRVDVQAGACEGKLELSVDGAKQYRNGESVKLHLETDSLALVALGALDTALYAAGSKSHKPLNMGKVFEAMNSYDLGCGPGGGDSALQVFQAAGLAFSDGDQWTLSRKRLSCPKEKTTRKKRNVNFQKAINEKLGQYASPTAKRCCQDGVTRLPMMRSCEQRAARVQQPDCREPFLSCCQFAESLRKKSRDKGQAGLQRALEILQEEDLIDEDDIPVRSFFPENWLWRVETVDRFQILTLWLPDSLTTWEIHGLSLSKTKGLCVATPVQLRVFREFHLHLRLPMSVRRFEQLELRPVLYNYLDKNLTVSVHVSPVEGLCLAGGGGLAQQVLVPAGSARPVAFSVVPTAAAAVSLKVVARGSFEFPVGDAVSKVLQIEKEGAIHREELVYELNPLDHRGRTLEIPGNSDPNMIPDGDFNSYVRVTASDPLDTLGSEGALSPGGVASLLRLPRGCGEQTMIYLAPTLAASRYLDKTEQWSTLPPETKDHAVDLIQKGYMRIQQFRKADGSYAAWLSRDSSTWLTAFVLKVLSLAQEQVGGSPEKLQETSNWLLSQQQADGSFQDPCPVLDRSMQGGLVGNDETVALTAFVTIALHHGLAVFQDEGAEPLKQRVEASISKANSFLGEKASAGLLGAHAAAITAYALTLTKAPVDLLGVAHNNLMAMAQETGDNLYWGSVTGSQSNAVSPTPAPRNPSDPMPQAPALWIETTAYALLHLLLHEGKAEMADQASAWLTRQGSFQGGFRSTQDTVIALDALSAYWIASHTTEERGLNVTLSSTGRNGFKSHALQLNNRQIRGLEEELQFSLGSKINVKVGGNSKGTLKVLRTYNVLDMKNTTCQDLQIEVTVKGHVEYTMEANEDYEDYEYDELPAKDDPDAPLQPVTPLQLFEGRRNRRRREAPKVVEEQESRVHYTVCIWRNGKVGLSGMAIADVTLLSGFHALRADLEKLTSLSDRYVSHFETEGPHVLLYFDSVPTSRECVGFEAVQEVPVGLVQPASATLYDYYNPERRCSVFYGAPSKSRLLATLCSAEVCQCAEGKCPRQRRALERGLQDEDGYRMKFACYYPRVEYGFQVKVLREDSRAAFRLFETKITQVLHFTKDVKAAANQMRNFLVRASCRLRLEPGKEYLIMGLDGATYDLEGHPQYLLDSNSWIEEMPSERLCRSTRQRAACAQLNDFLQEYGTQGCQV

Protein | lectin pathway-dependent C4 activation (C4 cleavage assay, C4b deposition on mannan) in pooled MASP-2-/- mouse serum
functionally active murine recombinant MASP-2 protein (protein) SKWPEPVFGRLVSPGFPEKYADHQDRSWTLTAPPGYRLRLYFTHFDLELSYRCEYDFVKLSSGTKVLATLCGQESTDTEQAPGNDTFYSLGPSLKVTFHSDYSNEKPFTGFEAFYAAEDVDECRVSLGDSVPCDHYCHNYLGGYYCSCRAGYVLHQNKHTCSALCSGQVFTGKSGYLSSPEYPQPYPKLSSCTYSIRLEDGFSVILDFVESFDVETHPEAQCPYDSLKIQTDKGEHGPFCGKTLPPRIETDSHKVTITFATDESGNHTGWKIHYTSTARPCPDPTAPPNGSISPVQAIYVLKDRFYVFCKTGFELLQGSVPLKSFTAVCQKDGSWDRPMPECS | restored lectin pathway-dependent C4 activation in a protein concentration dependent manner
catalytically inactive murine MASP-2A recombinant protein (protein) SKWPEPVFGRLVSPGFPEKYADHQDRSWTLTAPPGYRLRLYFTHFDLELSYRCEYDFVKLSSGTKVLATLCGQESTDTEQAPGNDTFYSLGPSLKVTFHSDYSNEKPFTGFEAFYAAEDVDECRVSLGDSVPCDHYCHNYLGGYYCSCRAGYVLHQNKHTCSALCSGQVFTGKSGYLSSPEYPQPYPKLSSCTYSIRLEDGFSVILDFVESFDVETHPEAQCPYDSLKIQTDKGEHGPFCGKTLPPRIETDSHKVTITFATDESGNHTGWKIHYTSTARPCPDPTAPPNGSISPVQAIYVLKDRFYVFCKTGFELLQGSVPLKSFTAVCQKDGSWDRPMPECS | did not restore C4 activation
